Measured values as given in article PMC11341838 (Nature Communications, 2024).

Biological target: T1, Pf3D7 recombinant AMA1, full ectodomain (domain I, II and III) (P. falciparum (strain 3D7))
T1 chain: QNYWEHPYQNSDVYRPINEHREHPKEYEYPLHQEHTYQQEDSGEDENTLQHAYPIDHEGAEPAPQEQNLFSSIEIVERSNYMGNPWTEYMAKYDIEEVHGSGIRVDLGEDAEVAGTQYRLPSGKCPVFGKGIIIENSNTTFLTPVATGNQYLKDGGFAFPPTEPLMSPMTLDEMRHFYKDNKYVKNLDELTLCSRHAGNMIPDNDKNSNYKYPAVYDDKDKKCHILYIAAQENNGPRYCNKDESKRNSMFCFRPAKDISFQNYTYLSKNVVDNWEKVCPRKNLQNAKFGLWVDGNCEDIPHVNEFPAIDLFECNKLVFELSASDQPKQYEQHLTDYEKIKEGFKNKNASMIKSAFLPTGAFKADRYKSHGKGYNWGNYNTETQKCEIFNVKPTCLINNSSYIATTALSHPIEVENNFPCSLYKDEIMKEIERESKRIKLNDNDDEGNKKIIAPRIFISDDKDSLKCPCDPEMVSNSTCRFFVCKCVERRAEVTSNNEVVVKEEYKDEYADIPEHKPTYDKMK
Test: ELISA

B1: mAb 1F9 (antibody, V domains shown)
VH: EVQLQQSGAELLKPGASVKLSCIVSGFKIKDTSMHWVKQRPEQGLEWIGRIDPANDNSEYDPKFQGKATITADTSSNTAYLQLSSLTSEDTAVYYCTLSHFWGQGTTLTVSS
VL: SIVMTQTPKFLPVSAGDRVTIICKASQSVSNDVVWYQQKPGQSPKLLIYYASIRYTGVPDRFTGSGYGTDFTFTISTVQVEDLAVYFCQQGFSSPRTFGGGTKLEIN
binding result: binds
